According to the DeepSol protein solubility set:

Assay: soluble on expression in E. coli; label from the status in PepcDB or PDB records

Sequence	soluble on expression in E. coli
MGSSHHHHHHMTYEYILVRYGEMTTKGKNRSKFVSTLKDNVKFKLKKFPNIKIDATHDRMYIQLNGEDHEAVSERLKDVFGIHKFNLAMKVPSELEDIKKGALAAFLQVKGDVKTFKITVHRSYKHFPMRTMELLPEIGGHILENTEDITVDVHNPDVNVRVEIRSGYSYIMCDERMGAGGLPVGVGGKVMVLLSGGIDSPVAAYLTMKRGVSVEAVHFHSPPFTSERAKQKVIDLAQELTKYCKRVTLHLVPFTEVQKTINKEIPSSYSMTVMRRMMMRITERIAEERNALAITTGESLGQVASQTLDSMHTINEVTNYPVIRPLITMDKLEIIKIAEEIGTYDISIRPYEDCCTVFTPASPATKPKREKANRFEAKYDFTPLIDEAVANKETMVLQTVEVVAEEEKFEELF	soluble
MSLDAPRFHIEEIRFSERDVALRLPFRFGAATVTACPQVYVRARIRFENGGTAEGCAAEMMVPKWFDKNPALSNEQNFEQLRCALRAARAAYVAEDGAQTAWTHFASNYAALQARAKAKGLQALVASYGPALIDRAVMDALCLRSGTSFATAMRANLCGIDIAGSGLADDLAGFDMPAFLASQSPRASIAARHTVGLADAIDDSDALPDAPADGLPTTLAEAVKRYGLTHFKPKLCGNTAQDISRLERIARVIDGHAQLVTLDGNEQYADADDFAVFLDRMLSTPVLWKLAQKTVFVEQPIRRDAALQRSVSAPGKRIPLLIDESDATLDAFVQARALGYTGVSSKSCKGFYKSVVNAARCAHWNAAEDKPRYFLSGEDLTMQAGIGVQQDLALVGWLGLSHVERNGHHYVNGLAAVPEAEQQALLKLHPGLYEPGDGAVRLAIRGGQLPLAPLAAAPGFATGIPGAGISWDAMRSVYEGHHHHHH	not soluble
SEISRQEFQRRRQALVEQMQPGSAALIFAAPEVTRSADSEYPYRQNSDFWYFTGFNEPEAVLVLIKSDDTHNHSVLFNRVRDLTAEIWFGRRLGQDAAPEKLGVDRALAFSEINQQLYQLLNGLDVVYHAQGEYAYADVIVNSALEKLRKGSRQNLTAPATMIDWRPVVHEMRLFKSPEEIAVLRRAGEITAMAHTRAMEKCRPGMFEYHLEGEIHHEFNRHGARYPSYNTIVGSGENGCILHYTENECEMRDGDLVLIDAGCEYKGYAGDITRTFPVNGKFTQAQREIYDIVLESLETSLRLYRPGTSILEVTGEVVRIMVSGLVKLGILKGDVDELIAQNAHRPFFMAGLSHWLGLDVHDVGVYGQDRSRILEPGMVLTVEPGLYIAPDAEVPEQYRGIGIRIEDDIVITETGNENLTASVVKKPEEIEALMVAARKQ	soluble
MSLPSERELGKELEVSRLTVRKAIQELEQKGILYKIQGKGTFVNDRKKAGEHGNKIGVISHLYKGVFMEILEGIEEGLESESYEYLLRNSQNDYKKEENIIQAMKEEGVSGFIISPVEDQKDSNVIFNLKAEGYPIVLIDRKLNYCETDCVLSDNIDGGFKATEYLIKLGHSRIAFLTYEFRKTSSVRDRIKGYRYALKLNQLELDERLLFSYNKDLSREEKNKILYNFIKENKPTAIIGVHNDVALDVVKMCRANNISIPEDISIICFDNTDIVRHLEVPLTTLVQDARKIGYDAAKLIVKKINSQEETGIMNQIYHPVKLIERNSCKSILQKNEGHHHHHH	soluble
MGSDKIHHHHHHVEQTQTRVYQYKFVNSISNIDSLIWNIFFGSSHPFTRHEYLSALEMSRCVSTETGWTPMHLIVMDGDNIIALMPLYLKSHSWGEYVFDWAWAEAYERHNIGYYPKLVGSIPFTPTTGRRIGIDPRLPKHDQQPLIDGIQTYLSQTVIKQGWSSWHCLFTNTEQHLQFAQAGVMERVGCQFHWHNQNYADFNDFLSTLTSRKRKNITKERISARQQLQFRFIDGDKASAQQWQNFVRCYQNTYLKRSGHKGYLSAAFFEQIAATMGSMIRLLLIENSDAQLVASALYFVSDTHLYGRYWGALTECDYVHFEACYYQGIEYAIANQLLVFDAGAQGEHKVARGFRPVKTTSSHFVAHEGFNDAIGAFCQQEQAHIDIYIQQMCEQLPYKSIDNT	not soluble
GPGSMFHRAFVSSSDLTGCTIALSSVCTQKRYWAKPKKRPKVGQGFHEKAQKWREEYLLDRHRALADSLRAYVEFSTSKRVEPWDARFKPFDRIEKDGVYVLMRYMMEEKLQLCNYHHRPVKRLFCNIGLMGPQITTKARWKPYRFATNPAGTSKAERMYQRDKTVYTHGHND	not soluble
THCHLKNGEYHIDLIPQRLRGEIASFDIHVPETGELIVEQGRRITARHIKQMEKSQMQDLVVPRDYLIGKTLAKNIIDTSTGEFLAQANDEITEELLDAMANHG	not soluble
TILVAIANDSVSPAVIDTAVRLADGLDEELYVVHLVDENTADGTAMQLRDEMRDRFRDATVVATVAIEHVGRSAMRSGTRIGNELLELAADVDVQHIVMGHEPKGLAGRLREGDAAVAVIDAADVPVTIVPEG	not soluble
MKLYNLKDHNEQVSFAQAVTQGLGKQQGLFFPHDLPEFSLTEIDEMLNQDFVSRSAKILSAFIGDEIPQQILEERVRAAFAFPAPVAQVESDVGCLELFHGPTLAFKDFGGRFMAQMLTHISGDKPVTILTATSGDTGAAVAHAFYGLENVRVVILYPRGKISPLQEKLFCTLGGNIETVAIDGDFDACQALVKQAFDDEELKTALGLNSANSINISRLLAQICYYFEAVAQLPQGARNQLVISVPSGNFGDLTAGLLAKSLGLPVKRFIAATNVNDTVPRFLHDGKWAPKATQATLSNAMDVSQPNNWPRVEELFRRKIWRLTELGYAAVDDTTTQQTMRELKAKGYISEPHAAVAYRALRDQLNPGEYGLFLGTAHPAKFKESVESILGETLALPEALAERADLPLLSHHLPADFAALRKLMMTRQ	not soluble
MRVVVLMGGRSSEREISLKTGKAVAKALRELGHEVYELDLDKELPCKLLEIKPDKVFIALHGRYGEDGTVQGLLEILDIPYTGSDTIASAVSIDKDFTKRIVKSLGINTPDWETFISEGDVLNTEWNKFPAVVKPVREGSSVGLKIVESLEELKEYALDLLKKTERVMVEEFVEGRDMTVGILKGEALPVVEIIPKKGVYDYECKYTKGMSEYRILKDEKLSKKLQEISLKISKFLSLKDFARIDFRVTKEGKIFFLEVNTIPGMTELSLLPMAAKEKGMDFKKLISIIIT	soluble
MGSDKIHHHHHHMSDSIYSIGTQGQPWTDEDKDLWLSKQVIKRSYQDEVLSKFESVTSSFDMIQYGSLSIDESRYPLYAMRSKNWQSKNKTVLVTGGVHGYETSGVQGAIRFLETSAKDFSQRFNIIVVPCVSPWGYETINRWNNEAIDPNRSFYLDSPAQESAALMSFINELDVNIAMHIDLHETTDTDNSEFRPALAARDAIEQKNWNIPDGFYLVGDSTKPAADFQGAINQAVAKVTHIAPEDSNGKLIGVDIEQFGVINYAGRELGLCMGLTDAPYVTTTEVYPDSPLVDDENCITAQVAAISAAITFI	not soluble
MVRFRREGVRLDQAVAEALSVSRAKAQAWIQAGRVRVGDRVVLKPAYRLKGEEVAVEPVEEAPMVLPEDLPIPILYEDEDVLALNKPPGLLTHPAPGVYSGTVVNLLLARYYGPVEKGPPELVRPGIVHRLDKDTSGVLVVAKHGGDLEGLARAFRDRLVMKRYLAITEGHPREGVLIAPIGRHPRERHKMHVGGLAARYAETEFQVLATAGPYALVEARPHTGRTHQIRVHLKYLGAPILGDELYGRKSPHIGRQALHAYELRIPHPRTGRILELLAPVPQDMAAAWEALGGRWPEEVVREGYAGAQ	soluble
MSLKVWGRGSSFNVQKVLWLVGELGLSHRHIPAGGDHGGLDEPSFLAMNPHGRVPVIDDGGVMVWESHAILRYLAARYGGSEWWPASPVDRAQADGWMDWAQTALQRDFLTGVFWGWYRTPEPERDNDAIRTALAACAKHFLLLDQILANRPFLGGDQPGLADIPCGTHLFRYYALEIDRPRTPNVEAWYARLQARPAYRKAVMIPFDEMKGRLAYEGHHHHHH	soluble
RVAVLVATHGNNTASSMVSVAKKLLGEGLVEGIDMPLDQSPKIVLDKLTERAKEMDMGRGLLLLVDMGSLTSFAPVISERTGIPVRSIDMVSTATVIEAVRKSNILDMELDSIYDSLKDFRGYGGYNSDDDTLDS	not soluble
MGSDKIHHHHHHMSTNHGANLYSLSSKYGFSKEEFMDFSSNINPFGTSSLAKQYIVNNIDMVSMYPDPDYIDLKTSISNYCKCSIDNIVLGSGATELISSFIHTINPKQALLLSPAYSEYEKELSKINCSIEKYFAKEEDNFHINLENLIKTINAKDYDLVVICNPSNPTGFAFTKVEVREILKNTDSFLMIDETYVEFTDTDTYSCTQLVDDYSNLFVIRGTSKFFSTPGIRLGYGLISNTNVKNEINKNLDLWNINIIASKMGEIMFSDLDFISNTISLMNTERDYLLKELKNIKSLDIYNTKGNFILCKIKTKELTAKSLREQLLPQKIIIRDCCSFKGLDEYFFRVCILKPNENKLLISSLKSIFK	not soluble
RGSHMEVRNMVDYELLKKVVEAPGVSGYEFLGIRDVVIEEIKDYVDEVKVDKLGNVIAHKKGEGPKVMIAAHMDQIGLMVTHIEKNGFLRVAPIGGVDPKTLIAQRFKVWIDKGKFIYGVGASVPPHIQKPEDRKKAPDWDQIFIDIGAESKEEAEDMGVKIGTVITWDGRLERLGKHRFVSIAFDDRIAVYTILEVAKQLKDAKADVYFVATVQEEVGLRGARTSAFGIEPDYGFAIDVTIAADIPGTPEHKQVTHLGKGTAIKIMDRSVICHPTIVRWLEELAKKHEIPYQLEILLGGGTDAGAIHLTKAGVPTGALSVPARYIHSNTEVVDERDVDATVELMTKALENIHELKI	soluble
MSLSTIDLHVHSNYSDGIHPPADLVKMAAERGLVAIAIADHDTVDGIDEALIAGARLGVEVVPAVELSAEHGRYRDMHILGYHLDHRDPRLVDMLAEFRINREIRGRAIVDKINQRLADGRKPLLSYDEVLNLAEGAVGRPHIGRMLIERGYARNMEDAFRRYLIPCNVPKRYIPAGDAITEIRRAGGVAVLAHPITVSDDRQVLRGIVSELVALGLDGIEVFNNMCYKDDMLFLEFLCRESGLLMTGGSDFHGFEDDVEIGSGRGGLAVSHRLAEAVKNLAESRRITPPGSRTEGHHHHHH	soluble
MGHHHHHHSHMACKCDCKNKQCKCGDKCECSGDKCCEKYCCEEASEKKCCPAGCKGDCKCANCHCAEQKQCGDKTHQHQGTAAAH	not soluble
MSLVEQLVKELSKGLNTRDYPEGFFKEHLAFRLKINKLEPVKHPHIPDINSLLGVEKQKEVLLRNTAQFVKGLPANDVLLWGARGTGKSSLVKALLGVFGKEGLRIVQVTKHEIPELADLYEVLRDKEEKFILFFDDLTFEPHEDAFRLLKSIMEGDVEERPQNVLFTQLQTGDTSLRIWKKRINFRRKHSTKSFL	not soluble
MGSDKIHHHHHHMTQPFKDAISICKTILRNGYDAYVVNMRLQSELMAEDKRMEIDLACECDFDEIARLFPNATRSDEEGVLAMLEEGGVAHRFYLTDTEESSYPDRTLMRITPHMVARLQALGKAHSSLTLPYGAAAPHDSDDFESFDKGIIRLRGLPDETLRRNYLLAVRAIRYAANLDMEIDPVTWIAIVRSAGRVLDYVPVSDIVAEWQMVEAETMWKFVRLLFDAQLLHGLLPEVAALARVRQSRNDSGDTETVLDHTIECMRHYPEEGFHHDWYGTLAMLFHDVGKLFTADFHDGQWTFYQHHRVGAKVTRRLLHRLHLPAQEVDLICHLVRHHMRFHFMLTDKGIRRFAALDEYPRLMEMARADIKARDGSYTYFNHNQKYLERAATPEQMLEPLLNGNEIMQHTGLHPGPQVGLIRDALLNAQVTGAVADVNDAVAFIKEYKRQYFS	not soluble
